The numbers were not newly measured in patent US10927175B2, “Method for treating cancer” (Sun Jet Biotechnology Inc., priority 2017, dated 2021), which cites them from elsewhere.

The test system of this data set is metastatic duodenal adenocarcinoma. Conditions: gradually decreasing prednisolone and replacing tacrolimus with sirolimus after nivolumab.

nivolumab: the allograft outcome is “preserved” and the tumor outcome is on record as “regressed”.
